Source: PMC8056383

Target: 23C-176C double-cysteine mutant of full-length ClpB, labelled with Alexa Fluor 488 and Alexa Fluor 594 (Thermus thermophilus) (UniProt Q9RA63)
Sequence (Q9RA63 whole entry R23C/D176C): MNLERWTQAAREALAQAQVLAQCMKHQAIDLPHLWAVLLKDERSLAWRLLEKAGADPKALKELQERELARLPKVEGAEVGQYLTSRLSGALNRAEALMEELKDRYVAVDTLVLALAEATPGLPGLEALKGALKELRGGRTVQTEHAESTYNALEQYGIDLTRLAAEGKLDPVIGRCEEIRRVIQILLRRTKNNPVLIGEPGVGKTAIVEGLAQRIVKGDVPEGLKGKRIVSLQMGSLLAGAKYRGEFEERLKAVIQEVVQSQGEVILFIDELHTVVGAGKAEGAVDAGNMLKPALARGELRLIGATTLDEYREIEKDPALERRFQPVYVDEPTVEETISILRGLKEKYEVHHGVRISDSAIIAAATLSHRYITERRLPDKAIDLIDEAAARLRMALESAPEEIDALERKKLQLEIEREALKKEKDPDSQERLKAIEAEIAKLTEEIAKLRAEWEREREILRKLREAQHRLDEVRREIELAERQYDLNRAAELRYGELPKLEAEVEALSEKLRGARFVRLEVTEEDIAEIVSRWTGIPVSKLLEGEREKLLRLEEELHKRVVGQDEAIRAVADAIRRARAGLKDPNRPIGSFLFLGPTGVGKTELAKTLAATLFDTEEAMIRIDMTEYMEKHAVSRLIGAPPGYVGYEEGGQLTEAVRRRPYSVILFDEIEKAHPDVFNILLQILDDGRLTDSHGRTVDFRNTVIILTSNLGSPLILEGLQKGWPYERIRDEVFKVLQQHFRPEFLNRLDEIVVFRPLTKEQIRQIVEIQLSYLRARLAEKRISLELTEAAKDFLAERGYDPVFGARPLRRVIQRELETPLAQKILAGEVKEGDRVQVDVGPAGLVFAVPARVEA

Substance: κ-casein (from UniProt P02668 22-190) (natural protein)
- ATPase activity of fully labeled 23C-176C ClpB with 25 μM κ-casein relative to basal: 3.1 fold
